± gives the uncertainty stated by the source.
Experiment: self-splicing fitness, log relative to wild type (ln ratio); higher = more splicing; Tetrahymena group I intron in knt gene, E. coli kanamycin selection, DiMSum; sequences stand for … in CUCUCU…GGAGGGAAAAGUUAUCAGGCAUGCACCUGGUAGCUAGUCUUUAAACCAAUAGAUUGCAUCGGUUUAAAAGGCAAGACCGUCAAAUUGCGGGAAAGGGGUCAACAGCCGUUCAGUACCAAGUCUCAGGGGAAACUUUGAGAUGGCCUUGCAAAGGGUAUGGUAAUAAGCUGACGGACAUGGUCCUAACCACGCAGCCAAGUCCUAAGUCAACAGAUCUUCUGUUGAUAUGGAUGCAGUUCACAGACUAAAUGUCGGUCGGGGAAGAUGUAUUCUUCUCAUAAGAUAUAGUCGGACCUCUCCUUAAUGGGAGCUAGCGGAUGAAGUGAUGCAACACUGGAGCCGCUGGGAACUAAUUUGUAUGCGAAAGUAUAUUGAUUAGUUUUGGAGUACUCGUGGUCG
Outline: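 DiMSum derived fitness as the error-weighted combination of fold changes across replicates, kanamycin versus no kanamycin, normalised to wild type. E. coli BL21(DE3) held the library, which randomised all eight P1ex-region intron nucleotides within the knt kanamycin-resistance gene on pET-22b(+). Six replicate transformations grew overnight at 37°C or 30°C on LB agar with or without 25 μg/mL kanamycin, also containing 100 μg/mL carbenicillin, 50 μM IPTG and 0.2% rhamnose, and pooled colonies were amplicon-sequenced on an Illumina HiSeq 2500.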

Sequence | self-splicing fitness (ln) (30 °C) | self-splicing fitness (ln) (37 °C)
UGGCAGCAAUAUUACGAUGA | -0.639 ± 0.12 | -0.971 ± 0.14
UGGCAGCAAUAUUACGAUGC | -3.93 ± 0.28 | -2.65 ± 0.41
UGGCAGCAAUAUUACGCAAG | -3.83 ± 0.18 | -2.44 ± 0.18
UGGCAGCAAUAUUACGCCCA | -1.66 ± 0.15 | 0.585 ± 0.24
UGGCAGCAAUAUUACGCCUA | -0.238 ± 0.21 | 0.697 ± 0.42
UGGCAGCAAUAUUACGCGAU | -2.67 ± 0.18 | -2.01 ± 0.21
UGGCAGCAAUAUUACGCGGC | -4.17 ± 0.29 | -2.23 ± 0.26
UGGCAGCAAUAUUACGCGUC | -3.54 ± 0.37 | -2.21 ± 0.3
UGGCAGCAAUAUUACGCGUG | -1.25 ± 0.14 | -0.356 ± 0.14
UGGCAGCAAUAUUACGCUCA | -0.353 ± 0.13 | 0.629 ± 0.18
UGGCAGCAAUAUUACGGACC | -2.02 ± 0.33 | -0.716 ± 0.24
UGGCAGCAAUAUUACGGAUU | -3.95 ± 0.24 | -1.88 ± 0.2
UGGCAGCAAUAUUACGGCCG | -3.49 ± 0.16 | -1.77 ± 0.16
UGGCAGCAAUAUUACGGCGA | 0.0623 ± 0.12 | 0.97 ± 0.13
UGGCAGCAAUAUUACGGCUC | -0.609 ± 0.082 | -0.683 ± 0.11
UGGCAGCAAUAUUACGUAUU | -2.73 ± 0.12 | -1.27 ± 0.11
UGGCAGCAAUAUUACGUCCA | -1.23 ± 0.12 | -0.471 ± 0.16
UGGCAGCAAUAUUACGUCUU | -0.0989 ± 0.044 | 0.494 ± 0.059
UGGCAGCAAUAUUACGUUAU | -2.25 ± 0.11 | -1.91 ± 0.16

Sequence | self-splicing fitness (ln) (30 °C) | self-splicing fitness (ln) (37 °C)
UGGCAGCAAUAUUACGUUGG | -2.33 ± 0.11 | -0.227 ± 0.13
UGGGAGCAAUAUUACGAUGU | -3.95 ± 0.33 | -2.53 ± 0.3
UGGGAGCAAUAUUACGAUUG | – | -2.29 ± 0.4
UGGGAGCAAUAUUACGCACG | -3.26 ± 0.37 | –
UGGGAGCAAUAUUACGCCGA | -0.637 ± 0.4 | -0.137 ± 0.24
UGGGAGCAAUAUUACGCCUA | -2.63 ± 0.44 | -1.75 ± 0.32
UGGGAGCAAUAUUACGCGAG | -1.25 ± 0.19 | -2.26 ± 0.27
UGGGAGCAAUAUUACGCUUA | -2.55 ± 0.11 | -0.767 ± 0.098
UGGGAGCAAUAUUACGCUUG | -1.62 ± 0.23 | 0.249 ± 0.23
UGGGAGCAAUAUUACGGCAG | -3.28 ± 0.21 | -1.34 ± 0.17
UGGGAGCAAUAUUACGGCCU | -2.18 ± 0.16 | -1.9 ± 0.2
UGGGAGCAAUAUUACGGCGC | -1.12 ± 0.38 | –
UGGGAGCAAUAUUACGGGAA | -2.98 ± 0.3 | -1.87 ± 0.24
UGGGAGCAAUAUUACGGGUA | -2.68 ± 0.32 | -2.33 ± 0.37
UGGGAGCAAUAUUACGUAUG | -3.01 ± 0.14 | -1.84 ± 0.22
UGGGAGCAAUAUUACGUGCG | -1.56 ± 0.11 | -0.551 ± 0.14
UGGGAGCAAUAUUACGUUAA | -2.76 ± 0.33 | –
UGGGAGCAAUAUUACGUUCA | -0.406 ± 0.091 | -0.266 ± 0.12
UGGUAGCAAUAUUACGACAU | -1.39 ± 0.015 | -0.583 ± 0.034

From the supplement of paper PMC7877785
